Target: the molecule itself
Test: SEC; preparative SEC after Ni affinity; HiLoad 16/600 Superdex 200 pg, 0.5 mL/min, 50 mM Tris/HCl pH 7.5, 10 mM MgCl2, 200 mM NaCl, 150 mM KCl, 5% glycerol, 0.5 mM TCEP

B1: mPKM2 internal LOV2 fusion at position D24 (PiL[D24]) (enzyme)
chain: not shown
notes: mouse pyruvate kinase M2 isoform (mPKM2), residues 1-24, amplified from pLHCX-flag-mPKM2; N-terminal part up to Asp24; Avena sativa phototropin 1 (NPH1-1) LOV2 domain, residues 404-540, amplified from plasmid pDS257 (Mid2(SS/TM)-GFP-LOVpep); G528A and N538E of the template were backmutated to wild-type LOV2; numbers count on phototropin 1 (NPH1-1, GenBank AAC05083.1); mouse pyruvate kinase M2 …
stoichiometry N: 4

Reference: PMC5637921, “An engineered photoswitchable mammalian pyruvate kinase” (The Febs Journal, 2017)
